Measurements: paper PMC7255924

Target: P1 adhesin (AgI/II, SpaP, PAc) A3VP1 polypeptide (UniProt P23504)
Test: ITC
Details: pH 5; 25°C; 100 mM NaCl; pH 5: 10 mM MES; pH 6: 50 mM sodium phosphate

## P1 adhesin (AgI/II, SpaP, PAc) C3 domain
  KD: 35.2 ± 7.0 µM
